# Results taken from US6673587B1, “Histone deacetylase, and uses therefor” (The Salk Institute for Biological Studies, priority 2000, dated 2004).
# Molecular target: T1, GAL DBD-SMRT (RD III+IV), pGBT9-hSMRT (1060-1831) (human, UniProt P04386 1-147; Q9Y618 1060-1831)
# T1 construct: domain: GAL DBD;range 1060-1831; Bait of the yeast two-hybrid screen and assays in strain Y190; also called SMRT repression domains III and IV; SMRT RD III and IV
# Test: yeast two-hybrid, growth on -Trp-Leu-His+40 mM 3-AT plates
# Procedure: (Verdel and Khochbin, 1999, supra)). A series of AD-HDAC constructs were generated for interaction assays in yeast. Transformants harboring both plasmids were picked and patched onto nutrient selection plates. Only cells that contain plasmids carrying an interacting partner are able to activate reporter gene HIS3 and therefore are viable in the selection plate -Trp-Leu-His+40 mM 3-AT. […] After three days, two isolated colonies were picked, resuspended in water, and […] were dropped on both -Trp-Leu and -Trp-Leu-His+40 mM 3-AT plates. Pictures were taken after three days.
row,Binder,binding result
1,"AD-HDAC1 (deacetylase domain of HDAC1, GAL AD fusion) (enzyme, UniProt Q13547 9-321, looked up, not shown: large carriers, domain: deacetylase domain) RKVCYYYDGDVGNYYYGQGHPMKPHRIRMTHNLLLNYGLYRKMEIYRPHKANAEEMTKYHSDDYIKFLRSIRPDNMSEYSKQMQRFNVGEDCPVFDGLFEFCQLSTGGSVASAVKLNKQQTDIAVNWAGGLHHAKKSEASGFCYVNDIVLAILELLKYHQRVLYIDIDIHHGDGVEEAFYTTDRVMTVSFHKYGEYFPGTGDLRDIGAGKGKYYAVNYPLRDGIDDESYEAIFKPVMSKVMEMFQPSAVVLQCGSDSLSGDRLGCFNLTIKGHAKCVEFVKSFNLPMLMLGGGGYTIRNVARCWTYETAVALD",no binding
2,"AD-HDAC3 (deacetylase domain of HDAC3, GAL AD fusion) (enzyme, UniProt O15379 3-316, looked up, not shown: large carriers, domain: deacetylase domain) KTVAYFYDPDVGNFHYGAGHPMKPHRLALTHSLVLHYGLYKKMIVFKPYQASQHDMCRFHSEDYIDFLQRVSPTNMQGFTKSLNAFNVGDDCPVFPGLFEFCSRYTGASLQGATQLNNKICDIAINWAGGLHHAKKFEASGFCYVNDIVIGILELLKYHPRVLYIDIDIHHGDGVQEAFYLTDRVMTVSFHKYGNYFFPGTGDMYEVGAESGRYYCLNVPLRDGIDDQSYKHLFQPVINQVVDFYQPTCIVLQCGADSLGCDRLGCFNLSIRGHGECVEYVKSFNIPLLVLGGGGYTVRNVARCWTYETSLLVE",no binding
